Source: patent publication US20180155406A1 (Sanofi, published 2018)
Numbered stars: 1 amine (or outer) side, 2 acyl side, 3 side chain; on linkers, the order of the positions; unused ones are H or OH. Square brackets hold non-standard residues; d marks the D form. Side chains are listed from the residue outwards. Ends that are not written are not given here. * marks the point of attachment. γGlu = O=C(O)[C@H](CCC(=O)[*:2])N[*:1]; Palmitoyl = CCCCCCCCCCCCCCCC(=O)*; Aib = CC(C)(N)C(=O)O

Key:
Test in all cases: cell-based or functional assay
human GLP-1 receptor = human GLP-1 receptor (human, UniProt P43220 24-463)
human GIP receptor = target: T1, human GIP receptor (human, UniProt P48546 22-466)
T1 sequence (looked up): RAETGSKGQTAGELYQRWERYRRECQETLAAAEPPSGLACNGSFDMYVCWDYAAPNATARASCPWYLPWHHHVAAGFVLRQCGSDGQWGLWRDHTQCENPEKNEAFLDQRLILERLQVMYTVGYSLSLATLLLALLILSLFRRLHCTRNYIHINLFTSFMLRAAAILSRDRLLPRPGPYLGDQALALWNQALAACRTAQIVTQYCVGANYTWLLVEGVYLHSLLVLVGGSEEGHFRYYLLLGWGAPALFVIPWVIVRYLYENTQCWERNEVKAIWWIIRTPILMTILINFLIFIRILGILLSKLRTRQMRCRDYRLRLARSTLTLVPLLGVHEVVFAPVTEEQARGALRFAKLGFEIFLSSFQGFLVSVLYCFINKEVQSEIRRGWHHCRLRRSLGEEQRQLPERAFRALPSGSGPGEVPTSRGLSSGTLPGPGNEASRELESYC

human glucagon receptor = human glucagon receptor (human, UniProt P47871 26-477)
Sequence of human glucagon receptor (P47871 26-477): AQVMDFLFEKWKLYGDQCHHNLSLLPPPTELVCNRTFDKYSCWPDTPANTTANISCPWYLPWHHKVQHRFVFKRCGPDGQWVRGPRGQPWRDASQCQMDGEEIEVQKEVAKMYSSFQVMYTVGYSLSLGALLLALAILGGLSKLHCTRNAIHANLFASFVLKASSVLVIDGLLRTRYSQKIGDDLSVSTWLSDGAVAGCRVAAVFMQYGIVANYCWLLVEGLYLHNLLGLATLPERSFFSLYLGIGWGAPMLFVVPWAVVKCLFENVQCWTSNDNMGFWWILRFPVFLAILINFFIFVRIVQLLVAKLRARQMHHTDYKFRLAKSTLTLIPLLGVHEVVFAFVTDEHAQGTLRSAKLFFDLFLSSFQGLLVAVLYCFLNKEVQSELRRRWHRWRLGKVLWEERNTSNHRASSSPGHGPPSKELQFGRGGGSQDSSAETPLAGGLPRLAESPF

## H[Aib]HGTFTSDLSKLK([γGlu-γGlu-Palmitoyl])EEQRQ[Aib]EFIEWLKAGGHPS[Aib]KPPPK-NH2 [SEQ ID NO: 12]
Human GLP-1 receptor
  EC50 hGLP-1R (cAMP formation): 1.8 pM
Human GIP receptor
  EC50 hGIP R (cAMP formation): 1.9 pM
Human glucagon receptor
  EC50 hGlucagon R (cAMP formation): 2 pM

B1: SEQ ID NO: 7 (peptide)
peptide: H[Aib]HGTFTSDLSKLK([γGlu-γGlu-Palmitoyl])EEQRQKEFIEWLKA[dA]GHPS[Aib]KPPPK-NH2
modifications: N-terminus assumed
SMILES: CCCCCCCCCCCCCCCC(=O)N[C@@H](CCC(=O)N[C@@H](CCC(=O)NCCCC[C@H](NC(=O)[C@H](CC(C)C)NC(=O)[C@H](CCCCN)NC(=O)[C@H](CO)NC(=O)[C@H](CC(C)C)NC(=O)[C@H](CC(=O)O)NC(=O)[C@H](CO)NC(=O)[C@@H](NC(=O)[C@H](Cc1ccccc1)NC(=O)[C@@H](NC(=O)CNC(=O)[C@H](Cc1c[nH]cn1)NC(=O)C(C)(C)NC(=O)[C@@H](N)Cc1c[nH]cn1)[C@@H](C)O)[C@@H](C)O)C(=O)N[C@@H](CCC(=O)O)C(=O)N[C@@H](CCC(=O)O)C(=O)N[C@@H](CCC(N)=O)C(=O)N[C@@H](CCCNC(=N)N)C(=O)N[C@@H](CCC(N)=O)C(=O)N[C@@H](CCCCN)C(=O)N[C@@H](CCC(=O)O)C(=O)N[C@@H](Cc1ccccc1)C(=O)N[C@H](C(=O)N[C@@H](CCC(=O)O)C(=O)N[C@@H](Cc1c[nH]c2ccccc12)C(=O)N[C@@H](CC(C)C)C(=O)N[C@@H](CCCCN)C(=O)N[C@@H](C)C(=O)N[C@H](C)C(=O)NCC(=O)N[C@@H](Cc1c[nH]cn1)C(=O)N1CCC[C@H]1C(=O)N[C@@H](CO)C(=O)NC(C)(C)C(=O)N[C@@H](CCCCN)C(=O)N1CCC[C@H]1C(=O)N1CCC[C@H]1C(=O)N1CCC[C@H]1C(=O)N[C@@H](CCCCN)C(N)=O)[C@@H](C)CC)C(=O)O)C(=O)O
Human GLP-1 receptor
  EC50 hGLP-1R (cAMP formation): 1.7 pM
Human GIP receptor
  EC50 hGIP R (cAMP formation): 2.6 pM
Human glucagon receptor
  EC50 hGlucagon R (cAMP formation): 3.2 pM

## H[Aib]HGTFTSDLSKLK([γGlu-γGlu-Palmitoyl])EEQRQKEFIEWLKAGGPPS[Aib]KPPPK-NH2 [SEQ ID NO: 8]
Human GLP-1 receptor
  EC50 hGLP-1R (cAMP formation): 1.3 pM
Human GIP receptor
  EC50 hGIP R (cAMP formation): 1.6 pM
Human glucagon receptor
  EC50 hGlucagon R (cAMP formation): 2 pM

B2: SEQ ID NO: 11 (peptide)
peptide: H[Aib]HGTFTSDLSKLK([γGlu-γGlu-Palmitoyl])EEQRQ[Aib]EFIEWLKA[dA]GPPS[Aib]KPPPK-NH2
modifications: N-terminus assumed
SMILES: CCCCCCCCCCCCCCCC(=O)N[C@@H](CCC(=O)N[C@@H](CCC(=O)NCCCC[C@H](NC(=O)[C@H](CC(C)C)NC(=O)[C@H](CCCCN)NC(=O)[C@H](CO)NC(=O)[C@H](CC(C)C)NC(=O)[C@H](CC(=O)O)NC(=O)[C@H](CO)NC(=O)[C@@H](NC(=O)[C@H](Cc1ccccc1)NC(=O)[C@@H](NC(=O)CNC(=O)[C@H](Cc1c[nH]cn1)NC(=O)C(C)(C)NC(=O)[C@@H](N)Cc1c[nH]cn1)[C@@H](C)O)[C@@H](C)O)C(=O)N[C@@H](CCC(=O)O)C(=O)N[C@@H](CCC(=O)O)C(=O)N[C@@H](CCC(N)=O)C(=O)N[C@@H](CCCNC(=N)N)C(=O)N[C@@H](CCC(N)=O)C(=O)NC(C)(C)C(=O)N[C@@H](CCC(=O)O)C(=O)N[C@@H](Cc1ccccc1)C(=O)N[C@H](C(=O)N[C@@H](CCC(=O)O)C(=O)N[C@@H](Cc1c[nH]c2ccccc12)C(=O)N[C@@H](CC(C)C)C(=O)N[C@@H](CCCCN)C(=O)N[C@@H](C)C(=O)N[C@H](C)C(=O)NCC(=O)N1CCC[C@H]1C(=O)N1CCC[C@H]1C(=O)N[C@@H](CO)C(=O)NC(C)(C)C(=O)N[C@@H](CCCCN)C(=O)N1CCC[C@H]1C(=O)N1CCC[C@H]1C(=O)N1CCC[C@H]1C(=O)N[C@@H](CCCCN)C(N)=O)[C@@H](C)CC)C(=O)O)C(=O)O
Human GLP-1 receptor
  EC50 hGLP-1R (cAMP formation): 2.9 pM
Human GIP receptor
  EC50 hGIP R (cAMP formation): 1.5 pM
Human glucagon receptor
  EC50 hGlucagon R (cAMP formation): 2.1 pM

B3: SEQ ID NO: 9 (peptide)
peptide: H[Aib]HGTFTSDLSKLK([γGlu-γGlu-Palmitoyl])EEQRQKEFIEWLKA[dA]GPPS[Aib]KPPPK-NH2
modifications: N-terminus assumed
SMILES: CCCCCCCCCCCCCCCC(=O)N[C@@H](CCC(=O)N[C@@H](CCC(=O)NCCCC[C@H](NC(=O)[C@H](CC(C)C)NC(=O)[C@H](CCCCN)NC(=O)[C@H](CO)NC(=O)[C@H](CC(C)C)NC(=O)[C@H](CC(=O)O)NC(=O)[C@H](CO)NC(=O)[C@@H](NC(=O)[C@H](Cc1ccccc1)NC(=O)[C@@H](NC(=O)CNC(=O)[C@H](Cc1c[nH]cn1)NC(=O)C(C)(C)NC(=O)[C@@H](N)Cc1c[nH]cn1)[C@@H](C)O)[C@@H](C)O)C(=O)N[C@@H](CCC(=O)O)C(=O)N[C@@H](CCC(=O)O)C(=O)N[C@@H](CCC(N)=O)C(=O)N[C@@H](CCCNC(=N)N)C(=O)N[C@@H](CCC(N)=O)C(=O)N[C@@H](CCCCN)C(=O)N[C@@H](CCC(=O)O)C(=O)N[C@@H](Cc1ccccc1)C(=O)N[C@H](C(=O)N[C@@H](CCC(=O)O)C(=O)N[C@@H](Cc1c[nH]c2ccccc12)C(=O)N[C@@H](CC(C)C)C(=O)N[C@@H](CCCCN)C(=O)N[C@@H](C)C(=O)N[C@H](C)C(=O)NCC(=O)N1CCC[C@H]1C(=O)N1CCC[C@H]1C(=O)N[C@@H](CO)C(=O)NC(C)(C)C(=O)N[C@@H](CCCCN)C(=O)N1CCC[C@H]1C(=O)N1CCC[C@H]1C(=O)N1CCC[C@H]1C(=O)N[C@@H](CCCCN)C(N)=O)[C@@H](C)CC)C(=O)O)C(=O)O
Human GLP-1 receptor
  EC50 hGLP-1R (cAMP formation): 1.6 pM
Human GIP receptor
  EC50 hGIP R (cAMP formation): 2.6 pM
Human glucagon receptor
  EC50 hGlucagon R (cAMP formation): 2.9 pM

B4: SEQ ID NO: 10 (peptide)
peptide: H[Aib]HGTFTSDLSKLK([γGlu-γGlu-Palmitoyl])EEQRQ[Aib]EFIEWLKAGGPPS[Aib]KPPPK-NH2
modifications: N-terminus assumed
SMILES: CCCCCCCCCCCCCCCC(=O)N[C@@H](CCC(=O)N[C@@H](CCC(=O)NCCCC[C@H](NC(=O)[C@H](CC(C)C)NC(=O)[C@H](CCCCN)NC(=O)[C@H](CO)NC(=O)[C@H](CC(C)C)NC(=O)[C@H](CC(=O)O)NC(=O)[C@H](CO)NC(=O)[C@@H](NC(=O)[C@H](Cc1ccccc1)NC(=O)[C@@H](NC(=O)CNC(=O)[C@H](Cc1c[nH]cn1)NC(=O)C(C)(C)NC(=O)[C@@H](N)Cc1c[nH]cn1)[C@@H](C)O)[C@@H](C)O)C(=O)N[C@@H](CCC(=O)O)C(=O)N[C@@H](CCC(=O)O)C(=O)N[C@@H](CCC(N)=O)C(=O)N[C@@H](CCCNC(=N)N)C(=O)N[C@@H](CCC(N)=O)C(=O)NC(C)(C)C(=O)N[C@@H](CCC(=O)O)C(=O)N[C@@H](Cc1ccccc1)C(=O)N[C@H](C(=O)N[C@@H](CCC(=O)O)C(=O)N[C@@H](Cc1c[nH]c2ccccc12)C(=O)N[C@@H](CC(C)C)C(=O)N[C@@H](CCCCN)C(=O)N[C@@H](C)C(=O)NCC(=O)NCC(=O)N1CCC[C@H]1C(=O)N1CCC[C@H]1C(=O)N[C@@H](CO)C(=O)NC(C)(C)C(=O)N[C@@H](CCCCN)C(=O)N1CCC[C@H]1C(=O)N1CCC[C@H]1C(=O)N1CCC[C@H]1C(=O)N[C@@H](CCCCN)C(N)=O)[C@@H](C)CC)C(=O)O)C(=O)O
Human GLP-1 receptor
  EC50 hGLP-1R (cAMP formation): 2.3 pM
Human GIP receptor
  EC50 hGIP R (cAMP formation): 1.1 pM
Human glucagon receptor
  EC50 hGlucagon R (cAMP formation): 1.6 pM

B5: SEQ ID NO: 13 (peptide)
peptide: H[Aib]HGTFTSDLSKLK([γGlu-γGlu-Palmitoyl])EEQRQ[Aib]EFIEWLKA[dA]GHPS[Aib]KPPPK-NH2
modifications: N-terminus assumed
SMILES: CCCCCCCCCCCCCCCC(=O)N[C@@H](CCC(=O)N[C@@H](CCC(=O)NCCCC[C@H](NC(=O)[C@H](CC(C)C)NC(=O)[C@H](CCCCN)NC(=O)[C@H](CO)NC(=O)[C@H](CC(C)C)NC(=O)[C@H](CC(=O)O)NC(=O)[C@H](CO)NC(=O)[C@@H](NC(=O)[C@H](Cc1ccccc1)NC(=O)[C@@H](NC(=O)CNC(=O)[C@H](Cc1c[nH]cn1)NC(=O)C(C)(C)NC(=O)[C@@H](N)Cc1c[nH]cn1)[C@@H](C)O)[C@@H](C)O)C(=O)N[C@@H](CCC(=O)O)C(=O)N[C@@H](CCC(=O)O)C(=O)N[C@@H](CCC(N)=O)C(=O)N[C@@H](CCCNC(=N)N)C(=O)N[C@@H](CCC(N)=O)C(=O)NC(C)(C)C(=O)N[C@@H](CCC(=O)O)C(=O)N[C@@H](Cc1ccccc1)C(=O)N[C@H](C(=O)N[C@@H](CCC(=O)O)C(=O)N[C@@H](Cc1c[nH]c2ccccc12)C(=O)N[C@@H](CC(C)C)C(=O)N[C@@H](CCCCN)C(=O)N[C@@H](C)C(=O)N[C@H](C)C(=O)NCC(=O)N[C@@H](Cc1c[nH]cn1)C(=O)N1CCC[C@H]1C(=O)N[C@@H](CO)C(=O)NC(C)(C)C(=O)N[C@@H](CCCCN)C(=O)N1CCC[C@H]1C(=O)N1CCC[C@H]1C(=O)N1CCC[C@H]1C(=O)N[C@@H](CCCCN)C(N)=O)[C@@H](C)CC)C(=O)O)C(=O)O
Human GLP-1 receptor
  EC50 hGLP-1R (cAMP formation): 2.8 pM
Human GIP receptor
  EC50 hGIP R (cAMP formation): 2.7 pM
Human glucagon receptor
  EC50 hGlucagon R (cAMP formation): 2.1 pM
